Measured values taken from publication PMC3593212, “Sequence-Specific, RNA–Protein Interactions Overcome Electrostatic Barriers Preventing Assembly of Satellite Tobacco Necrosis Virus Coat Protein” (Journal of Molecular Biology, 2013).

Experiments:
[1] = target: the molecule itself; test: crystal structure; VLP reassembled from purified CP with B3 RNA aptamer (5:1 w/w CP:RNA) in 50 mM Hepes, 3 mM CaCl2, pH 7.5, purified by SEC; crystals in 50 mM phosphate pH 6.2-6.8, 0.2-0.8% PEG 6000, 0-1 mM MgCl2, 25 °C; strict 60-fold NCS
STNV-1 coat protein (CP) [2] = target: T1, STNV-1 coat protein (CP) (Satellite tobacco necrosis virus 1 …, UniProt P03606 1-196); test: analytical ultracentrifugation (capsid reassembly); heterologous RNA; triggers capsid assembly; Reassembly buffer, salt, pH and temperature not in the material (capsid assembly depends on calcium and pH); short RNAs at molar ratios incl. 1:1 and 2.5:1; CP; details: protein: recombinant; hairpin, loop AUUA
T1 sequence: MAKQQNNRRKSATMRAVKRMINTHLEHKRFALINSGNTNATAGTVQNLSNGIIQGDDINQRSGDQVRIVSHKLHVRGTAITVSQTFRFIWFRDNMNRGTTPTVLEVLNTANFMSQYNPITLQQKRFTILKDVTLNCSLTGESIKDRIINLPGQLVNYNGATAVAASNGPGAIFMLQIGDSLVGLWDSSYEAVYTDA

STNV-1 coat protein (CP) [3] = target: T1, STNV-1 coat protein (CP); test: analytical ultracentrifugation (capsid reassembly), TEM; VLPs form even at lowest molar ratio; 28 S and ~42 S species at 1:1; Reassembly buffer, salt, pH and temperature not in the material (capsid assembly depends on calcium and pH); short RNAs at molar ratios incl. 1:1 and 2.5:1; CP; details: protein: recombinant; hairpin, 4-nt loop ACAA
STNV-1 coat protein (CP) [4] = target: T1, STNV-1 coat protein (CP); test: analytical ultracentrifugation (capsid reassembly); assembly more efficient than B3; Reassembly buffer, salt, pH and temperature not in the material (capsid assembly depends on calcium and pH); short RNAs at molar ratios incl. 1:1 and 2.5:1; CP; details: protein: recombinant; hairpin, 4-nt loop ACAA

B1: satellite tobacco necrosis virus (STNV-1) coat protein (natural protein)
chain: MAKQQNNRRKSATMRAVKRMINTHLEHKRFALINSGNTNATAGTVQNLSNGIIQGDDINQRSGDQVRIVSHKLHVRGTAITVSQTFRFIWFRDNMNRGTTPTVLEVLNTANFMSQYNPITLQQKRFTILKDVTLNCSLTGESIKDRIINLPGQLVNYNGATAVAASNGPGAIFMLQIGDSLVGLWDSSYEAVYTDA
notes: coat protein of satellite tobacco necrosis virus strain 1 (STNV-1), recombinant version expressed from a synthetic gene; In the T = 1 capsid the chain stands 60 times; all assembly here was done with RNA present; also called STNV CP; CP; source: E. coli (synthetic gene); recombinant VLPs purified, disassembled in 50 mM Hepes, 10 mM EDTA, pH 8.5; CP separated from the mRNA by Q-Sepharose FF and SP …
stoichiometry N [1]: 60

ACAUGAGGAUUACCCAUGU (structured_RNA) [MS2 TR]
binding result (STNV-1 coat protein (CP) [2]): binds

CCUUUUCAAGACAUGCAACAAUGCACACAG (structured_RNA) [B3 aptamer]
binding result (STNV-1 coat protein (CP) [3]): binds

CGUGCAACAAUGCACG (structured_RNA) [B3 short]
binding result (STNV-1 coat protein (CP) [4]): binds
